{"source": "paper PMC13522589", "about": "“Weak SLP-76/PLC-γ1 interaction fine-tunes T cell receptor signal strength to optimize T cell responsiveness” (Nature Communications, 2026)", "molecules": {"B1": {"name": "Phospholipase C-γ1 (PLC-γ1), 1–1219 (enzyme, UniProt P19174 1-1219, looked up)", "chain": "MAGAASPCANGCGPGAPSDAEVLHLCRSLEVGTVMTLFYSKKSQRPERKTFQVKLETRQITWSRGADKIEGAIDIREIKEIRPGKTSRDFDRYQEDPAFRPDQSHCFVILYGMEFRLKTLSLQATSEDEVNMWIKGLTWLMEDTLQAPTPLQIERWLRKQFYSVDRNREDRISAKDLKNMLSQVNYRVPNMRFLRERLTDLEQRSGDITYGQFAQLYRSLMYSAQKTMDLPFLEASTLRAGERPELCRVSLPEFQQFLLDYQGELWAVDRLQVQEFMLSFLRDPLREIEEPYFFLDEFVTFLFSKENSVWNSQLDAVCPDTMNNPLSHYWISSSHNTYLTGDQFSSESSLEAYARCLRMGCRCIELDCWDGPDGMPVIYHGHTLTTKIKFSDVLHTIKEHAFVASEYPVILSIEDHCSIAQQRNMAQYFKKVLGDTLLTKPVEISADGLPSPNQLKRKILIKHKKLAEGSAYEEVPTSMMYSENDISNSIKNGILYLEDPVNHEWYPHYFVLTSSKIYYSEETSSDQGNEDEEEPKEVSSSTELHSNEKWFHGKLGAGRDGRHIAERLLTEYCIETGAPDGSFLVRESETFVGDYTLSFWRNGKVQHCRIHSRQDAGTPKFFLTDNLVFDSLYDLITHYQQVPLRCNEFEMRLSEPVPQTNAHESKEWYHASLTRAQAEHMLMRVPRDGAFLVRKRNEPNSYAISFRAEGKIKHCRVQQEGQTVMLGNSEFDSLVDLISYYEKHPLYRKMKLRYPINEEALEKIGTAEPDYGALYEGRNPGFYVEANPMPTFKCAVKALFDYKAQREDELTFIKSAIIQNVEKQEGGWWRGDYGGKKQLWFPSNYVEEMVNPVALEPEREHLDENSPLGDLLRGVLDVPACQIAIRPEGKNNRLFVFSISMASVAHWSLDVAADSQEELQDWVKKIREVAQTADARLTEGKIMERRKKIALELSELVVYCRPVPFDEEKIGTERACYRDMSSFPETKAEKYVNKAKGKKFLQYNRLQLSRIYPKGQRLDSSNYDPLPMWICGSQLVALNFQTPDKPMQMNQALFMTGRHCGYVLQPSTMRDEAFDPFDKSSLRGLEPCAISIEVLGARHLPKNGRGIVCPFVEIEVAGAEYDSTKQKTEFVVDNGLNPVWPAKPFHFQISNPEFAFLRFVVYEEDMFSDQNFLAQATFPVKGLKTGYRAVPLKNNYSEDLELASLLIKIDIFPAKENGD"}}, "key": {"[1]": {"target": "LAT 125-178 (Homo sapiens) (UniProt O43561)", "sequence (O43561 125-178)": "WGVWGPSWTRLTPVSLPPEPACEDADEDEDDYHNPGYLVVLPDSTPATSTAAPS", "experiment": "ITC", "details": "cited from earlier work"}, "[2]": {"target": "SLP-76 157-420 (Homo sapiens) (UniProt Q13094)", "sequence (Q13094 157-420)": "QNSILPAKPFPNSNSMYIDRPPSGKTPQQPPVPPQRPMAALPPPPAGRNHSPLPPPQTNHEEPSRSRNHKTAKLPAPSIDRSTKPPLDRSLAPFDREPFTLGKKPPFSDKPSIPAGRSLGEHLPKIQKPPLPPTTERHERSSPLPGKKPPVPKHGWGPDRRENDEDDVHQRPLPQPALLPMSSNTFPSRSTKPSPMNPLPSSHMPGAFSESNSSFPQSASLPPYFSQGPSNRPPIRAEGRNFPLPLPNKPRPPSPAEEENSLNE", "experiment": "ITC", "details": "cited from earlier work"}, "[3]": {"target": "SLP-76 159-533 (Homo sapiens) (UniProt Q13094)", "sequence (Q13094 159-533)": "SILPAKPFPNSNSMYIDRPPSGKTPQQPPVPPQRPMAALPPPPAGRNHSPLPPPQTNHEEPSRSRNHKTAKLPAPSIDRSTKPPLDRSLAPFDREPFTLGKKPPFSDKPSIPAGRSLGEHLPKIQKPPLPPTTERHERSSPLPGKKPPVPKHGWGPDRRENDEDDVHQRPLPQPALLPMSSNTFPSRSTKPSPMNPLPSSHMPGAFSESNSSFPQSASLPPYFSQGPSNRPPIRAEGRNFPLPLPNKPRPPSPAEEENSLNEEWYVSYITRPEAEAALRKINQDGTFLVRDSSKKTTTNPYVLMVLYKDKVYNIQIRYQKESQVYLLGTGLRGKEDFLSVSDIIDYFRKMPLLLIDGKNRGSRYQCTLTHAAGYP", "experiment": "ITC", "details": "cited from earlier work"}, "[4]": {"target": "LAT 161-180 (Homo sapiens) (UniProt O43561)", "experiment": "ITC", "details": "cited from earlier work"}, "[5]": {"target": "LAT 122-140 (Homo sapiens) (UniProt O43561)", "experiment": "ITC", "details": "cited from earlier work"}, "SLP-76 (Homo sapiens)": {"target": "SLP-76 (Homo sapiens) (UniProt Q13094)", "sequence (Q13094 whole entry)": "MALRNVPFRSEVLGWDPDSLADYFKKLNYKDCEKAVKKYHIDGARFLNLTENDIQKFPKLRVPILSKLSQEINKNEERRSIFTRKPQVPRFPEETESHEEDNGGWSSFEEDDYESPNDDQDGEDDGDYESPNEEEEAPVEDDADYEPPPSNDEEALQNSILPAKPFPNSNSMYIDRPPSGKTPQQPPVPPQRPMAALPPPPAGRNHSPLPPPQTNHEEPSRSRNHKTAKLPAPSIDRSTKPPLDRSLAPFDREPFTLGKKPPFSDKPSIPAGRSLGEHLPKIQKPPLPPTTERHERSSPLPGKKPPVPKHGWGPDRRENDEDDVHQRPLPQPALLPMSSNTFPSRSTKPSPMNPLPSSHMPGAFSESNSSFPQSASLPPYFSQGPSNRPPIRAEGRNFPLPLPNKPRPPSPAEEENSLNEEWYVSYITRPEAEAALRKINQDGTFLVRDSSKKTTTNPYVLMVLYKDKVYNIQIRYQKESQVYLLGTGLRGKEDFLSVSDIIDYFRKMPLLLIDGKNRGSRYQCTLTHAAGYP", "experiment": "ITC", "details": "cited from earlier work"}, "[6]": {"target": "B1", "experiment": "cell-based or functional assay"}, "[7]": {"target": "B1", "experiment": "ITC; VP-ITC or PEAQ-ITC; 20 mM Hepes pH 7.4, 100 mM NaCl, 0.1 mM DTT, 5 °C; 4 µM in the cell, 40 µM in the syringe; fit to a single binding site with 1:1 stoichiometry", "details": "both partners purified"}, "[8]": {"target": "T1, phosphorylated LAT (48–233aa, pY132, pY171) (UniProt O43561-2 48-233, phosphotyrosine at 132 and 171 (in vitro phosphorylation, validated by mass spectrometry))", "T1 sequence (looked up)": "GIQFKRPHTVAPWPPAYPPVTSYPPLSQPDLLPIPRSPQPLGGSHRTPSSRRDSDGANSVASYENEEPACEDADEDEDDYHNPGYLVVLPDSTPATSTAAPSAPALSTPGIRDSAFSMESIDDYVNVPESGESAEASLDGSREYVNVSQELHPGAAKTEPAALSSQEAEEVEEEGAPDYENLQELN", "experiment": "cell-based or functional assay"}, "PLC-γ1 (1-1219)": {"target": "T2, PLC-γ1 (1-1219) (UniProt P19174 1-1219)", "T2 construct": "the text calls it full length PLC-γ1; this is the only PLC-γ1 that the methods describe; also called Phospholipase C-γ1; PLC-g1; source: Sf9, purified (HaloLink Resin, TEV cleavage, SEC)", "T2 sequence (looked up)": "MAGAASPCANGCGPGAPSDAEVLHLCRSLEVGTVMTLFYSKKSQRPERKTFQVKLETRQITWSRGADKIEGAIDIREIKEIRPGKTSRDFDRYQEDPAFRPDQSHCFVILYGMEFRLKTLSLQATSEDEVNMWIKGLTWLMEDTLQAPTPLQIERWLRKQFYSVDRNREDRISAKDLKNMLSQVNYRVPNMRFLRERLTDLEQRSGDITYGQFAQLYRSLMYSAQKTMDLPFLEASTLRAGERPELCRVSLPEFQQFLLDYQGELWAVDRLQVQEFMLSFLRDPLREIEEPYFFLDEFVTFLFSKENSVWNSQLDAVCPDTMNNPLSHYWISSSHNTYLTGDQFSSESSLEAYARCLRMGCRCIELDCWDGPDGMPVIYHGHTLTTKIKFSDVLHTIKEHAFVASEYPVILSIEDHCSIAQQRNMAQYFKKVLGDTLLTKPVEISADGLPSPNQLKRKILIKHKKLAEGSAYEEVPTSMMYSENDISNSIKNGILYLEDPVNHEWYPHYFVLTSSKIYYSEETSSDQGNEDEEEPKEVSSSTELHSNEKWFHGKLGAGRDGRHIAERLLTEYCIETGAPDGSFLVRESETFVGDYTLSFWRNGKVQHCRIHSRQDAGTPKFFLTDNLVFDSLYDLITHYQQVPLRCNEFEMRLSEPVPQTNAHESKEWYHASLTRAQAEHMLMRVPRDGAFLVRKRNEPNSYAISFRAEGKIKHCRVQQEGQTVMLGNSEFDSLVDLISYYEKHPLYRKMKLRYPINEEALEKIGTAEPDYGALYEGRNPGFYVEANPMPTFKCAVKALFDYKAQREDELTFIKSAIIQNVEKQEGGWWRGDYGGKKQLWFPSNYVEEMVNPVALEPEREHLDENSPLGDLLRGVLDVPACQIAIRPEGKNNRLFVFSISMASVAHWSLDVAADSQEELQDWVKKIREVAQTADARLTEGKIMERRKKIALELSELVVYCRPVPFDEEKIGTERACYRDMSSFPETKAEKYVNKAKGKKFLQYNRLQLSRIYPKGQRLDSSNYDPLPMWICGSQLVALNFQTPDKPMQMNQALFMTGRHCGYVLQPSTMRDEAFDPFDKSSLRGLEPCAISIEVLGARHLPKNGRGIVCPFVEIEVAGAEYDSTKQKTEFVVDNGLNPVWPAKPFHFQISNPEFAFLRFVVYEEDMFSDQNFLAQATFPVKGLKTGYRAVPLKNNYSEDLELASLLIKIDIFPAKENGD", "experiment": "ITC; PEAQ-ITC, 5 °C, 20 mM Hepes pH 7.4, 100 mM NaCl, 0.1 mM DTT; 4 µM in the cell and 40 µM in the syringe, 19 injections of 2 µL; single binding site model with 1:1 stoichiometry", "details": "both partners purified"}}, "data": [{"molecule": "Gads 1-322 (from UniProt O75791)", "values": [{"measurement": "Kd", "setting": "[1]", "result": 213, "unit": "nM"}, {"measurement": "Kd", "setting": "[2]", "result": 19, "unit": "nM"}, {"measurement": "Kd", "setting": "[3]", "result": 3.6, "unit": "nM"}, {"measurement": "Kd", "setting": "[4]", "result": 164, "unit": "nM"}]}, {"molecule": "PLC-γ1 1-1219 (from UniProt P19174)", "values": [{"measurement": "Kd", "setting": "[1]", "result": 84, "unit": "nM"}]}, {"molecule": "PLC-γ1 550-846 (from UniProt P19174)", "values": [{"measurement": "Kd", "setting": "[5]", "result": 62, "unit": "nM"}, {"measurement": "Kd", "setting": "[2]", "result": 3340, "unit": "nM"}]}, {"molecule": "PLC-γ1 (from UniProt P19174)", "values": [{"measurement": "Kd", "setting": "SLP-76 (Homo sapiens)", "result": 3340, "unit": "nM"}]}, {"molecule": "SLP-76^WT polypeptide (aa 103–258, Y113F, Y173F) (domain or fragment, UniProt Q13094 103-258, looked up, source: E. coli Rosetta 2(DE3)pLysS, purified (Glutathione Resin, TEV cleavage, HisTrap, SEC); not shown: His6, N-terminal, cleaved; GST, N-terminal, cleaved) GGWSSFEEDDFESPNDDQDGEDDGDYESPNEEEEAPVEDDADYEPPPSNDEEALQNSILPAKPFPNSNSMFIDRPPSGKTPQQPPVPPQRPMAALPPPPAGRNHSPLPPPQTNHEEPSRSRNHKTAKLPAPSIDRSTKPPLDRSLAPFDREPFTLG", "values": [{"measurement": "PLC-γ1 activity on PIP2-bearing liposomes (IP3): LAT/Gads/SLP-76^WT/PLC-γ1 tetramer against PLC-γ1 with phospho-LAT alone", "setting": "[6]", "result": 1.7, "unit": "fold"}, {"measurement": "Kd", "setting": "[7]", "result": 2320, "unit": "nM"}, {"measurement": "dH", "setting": "[7]", "result": -3.8, "unit": "kcal/mol"}]}, {"molecule": "B1", "values": [{"measurement": "PIP2 hydrolysis (IP3) by PLC-γ1 on liposomes containing phospho-LAT alone, compared with liposomes incubated with PLC-γ1 alone", "setting": "[8]", "result": 2.1, "unit": "fold"}]}, {"molecule": "QPPVPPQRPMAALPPP (peptide, UniProt Q13094 185-200, looked up, SLP-76 proline-rich region, residues 185-200; The peptides are called 'a set of short peptides'; also called SLP-76^WT; SLP-76 PRR_(185-200))", "note": "[SLP-76 PRR (aa 185-200) peptide, wild type]", "values": [{"measurement": "Kd", "setting": "PLC-γ1 (1-1219)", "result": 2360, "unit": "nM"}]}, {"molecule": "QPPVPPQRPMAALPPP (peptide, UniProt Q13094 185-200, looked up, also called SLP-76 185–200 (WT); SLP-76 PRR_(185–200) peptide)", "note": "[SLP-76 PRR peptide (aa 185–200), wild type]", "values": [{"measurement": "Kd", "setting": "[7]", "result": 3990, "unit": "nM"}, {"measurement": "dH", "setting": "[7]", "result": -3.3, "unit": "kcal/mol"}]}]}
